Columns and labels:
TRBP-dsRBD1 [1] = target: T1, TRBP-dsRBD1 (UniProt Q15633-2 9-85); experiment: EMSA; apparent Kd; nH 2.6; 50 mM sodium cacodylate pH 7.0, 50 mM potassium glutamate, 5% glycerol; EMSA 0.5 pM RNA, 30 min at room temperature, gel 0.25X TBE at 10 C; CD at 10 C with 5-15 uM RNA; conditions: protein: recombinant; label: 5'-32P top strand (EMSA); blunt
T1 sequence: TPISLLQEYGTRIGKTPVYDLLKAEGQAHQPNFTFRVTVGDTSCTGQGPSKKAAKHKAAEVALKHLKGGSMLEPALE

TRBP-ΔC [2] = target: T2, TRBP-ΔC (UniProt Q15633-2 9-215); experiment: EMSA; apparent Kd; nH >14; 50 mM sodium cacodylate pH 7.0, 50 mM potassium glutamate, 5% glycerol; EMSA 0.5 pM RNA, 30 min at room temperature, gel 0.25X TBE at 10 C; CD at 10 C with 5-15 uM RNA; conditions: protein: recombinant; label: 5'-32P top strand (EMSA); blunt
T2 sequence: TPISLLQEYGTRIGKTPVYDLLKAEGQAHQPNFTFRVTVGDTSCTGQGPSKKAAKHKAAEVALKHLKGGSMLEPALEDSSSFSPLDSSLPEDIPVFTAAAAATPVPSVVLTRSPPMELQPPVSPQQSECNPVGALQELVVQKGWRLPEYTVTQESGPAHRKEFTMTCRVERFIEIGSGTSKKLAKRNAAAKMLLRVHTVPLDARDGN

TRBP-dsRBD2 [3] = target: T3, TRBP-dsRBD2 (UniProt Q15633-2 139-215); experiment: EMSA; apparent Kd; nH 4.3; 50 mM sodium cacodylate pH 7.0, 50 mM potassium glutamate, 5% glycerol; EMSA 0.5 pM RNA, 30 min at room temperature, gel 0.25X TBE at 10 C; CD at 10 C with 5-15 uM RNA; conditions: protein: recombinant; label: 5'-32P top strand (EMSA); blunt
T3 sequence: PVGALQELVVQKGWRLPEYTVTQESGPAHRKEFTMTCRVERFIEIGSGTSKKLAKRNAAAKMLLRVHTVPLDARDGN

TRBP-ΔC [4] = target: T2, TRBP-ΔC; experiment: EMSA; apparent Kd; nH 3.2 (1.4 in loop section); 50 mM sodium cacodylate pH 7.0, 50 mM potassium glutamate, 5% glycerol; EMSA 0.5 pM RNA, 30 min at room temperature, gel 0.25X TBE at 10 C; CD at 10 C with 5-15 uM RNA; conditions: protein: recombinant; label: 5'-32P top strand (EMSA); blunt
TRBP-ΔC [5] = target: T2, TRBP-ΔC; experiment: EMSA; apparent Kd; nH 1.1; text gives error 0.1; 50 mM sodium cacodylate pH 7.0, 50 mM potassium glutamate, 5% glycerol; EMSA 0.5 pM RNA, 30 min at room temperature, gel 0.25X TBE at 10 C; CD at 10 C with 5-15 uM RNA; conditions: protein: recombinant; label: 5'-32P top strand; imperfect duplex with U-bulge and A-A mismatch
TRBP-dsRBD2 [6] = target: T3, TRBP-dsRBD2; experiment: EMSA; apparent Kd; nH 3.1; 50 mM sodium cacodylate pH 7.0, 50 mM potassium glutamate, 5% glycerol; EMSA 0.5 pM RNA, 30 min at room temperature, gel 0.25X TBE at 10 C; CD at 10 C with 5-15 uM RNA; conditions: protein: recombinant; label: 5'-32P top strand (EMSA); blunt
TRBP-dsRBD1 [7] = target: T1, TRBP-dsRBD1; experiment: EMSA; apparent Kd; nH 2.9; 50 mM sodium cacodylate pH 7.0, 50 mM potassium glutamate, 5% glycerol; EMSA 0.5 pM RNA, 30 min at room temperature, gel 0.25X TBE at 10 C; CD at 10 C with 5-15 uM RNA; conditions: protein: recombinant; label: 5'-32P top strand (EMSA); blunt
TRBP-ΔC [8] = target: T2, TRBP-ΔC; experiment: EMSA; apparent Kd; nH >12; 50 mM sodium cacodylate pH 7.0, 50 mM potassium glutamate, 5% glycerol; EMSA 0.5 pM RNA, 30 min at room temperature, gel 0.25X TBE at 10 C; CD at 10 C with 5-15 uM RNA; conditions: protein: recombinant; label: 5'-32P top strand (EMSA); blunt
TRBP-dsRBD2 [9] = target: T3, TRBP-dsRBD2; experiment: EMSA; apparent Kd; nH 2.7; 50 mM sodium cacodylate pH 7.0, 50 mM potassium glutamate, 5% glycerol; EMSA 0.5 pM RNA, 30 min at room temperature, gel 0.25X TBE at 10 C; CD at 10 C with 5-15 uM RNA; conditions: protein: recombinant
TRBP-dsRBD1 [10] = target: T1, TRBP-dsRBD1; experiment: EMSA; apparent Kd; nH 1.5; 50 mM sodium cacodylate pH 7.0, 50 mM potassium glutamate, 5% glycerol; EMSA 0.5 pM RNA, 30 min at room temperature, gel 0.25X TBE at 10 C; CD at 10 C with 5-15 uM RNA; conditions: protein: recombinant; label: 5'-32P top strand (EMSA); blunt
TRBP-ΔC [11] = target: T2, TRBP-ΔC; experiment: EMSA; apparent Kd; nH 4; 50 mM sodium cacodylate pH 7.0, 50 mM potassium glutamate, 5% glycerol; EMSA 0.5 pM RNA, 30 min at room temperature, gel 0.25X TBE at 10 C; CD at 10 C with 5-15 uM RNA; conditions: protein: recombinant; label: 5'-32P top strand (EMSA); blunt
TRBP-ΔC [12] = target: T2, TRBP-ΔC; experiment: EMSA; apparent Kd; nH 5; 50 mM sodium cacodylate pH 7.0, 50 mM potassium glutamate, 5% glycerol; EMSA 0.5 pM RNA, 30 min at room temperature, gel 0.25X TBE at 10 C; CD at 10 C with 5-15 uM RNA; conditions: protein: recombinant; label: 5'-32P top strand; duplex with 1-nt U-bulge
TRBP-ΔC [13] = target: T2, TRBP-ΔC; experiment: EMSA; apparent Kd; nH 1.9; 50 mM sodium cacodylate pH 7.0, 50 mM potassium glutamate, 5% glycerol; EMSA 0.5 pM RNA, 30 min at room temperature, gel 0.25X TBE at 10 C; CD at 10 C with 5-15 uM RNA; conditions: protein: recombinant; label: 5'-32P top strand (EMSA); blunt
TRBP-ΔC [14] = target: T2, TRBP-ΔC; experiment: EMSA; apparent Kd; nH 2.7; 50 mM sodium cacodylate pH 7.0, 50 mM potassium glutamate, 5% glycerol; EMSA 0.5 pM RNA, 30 min at room temperature, gel 0.25X TBE at 10 C; CD at 10 C with 5-15 uM RNA; conditions: protein: recombinant; label: 5'-32P top strand; duplex with 1x1 A-A mismatch
TRBP-dsRBD1 [15] = target: T1, TRBP-dsRBD1; experiment: EMSA; apparent Kd; nH 1.3; 50 mM sodium cacodylate pH 7.0, 50 mM potassium glutamate, 5% glycerol; EMSA 0.5 pM RNA, 30 min at room temperature, gel 0.25X TBE at 10 C; CD at 10 C with 5-15 uM RNA; conditions: protein: recombinant, label: 5'-32P, hairpin, 16 bp stem
TRBP-dsRBD2 [16] = target: T3, TRBP-dsRBD2; experiment: EMSA; apparent Kd; nH >2; text says bound; 50 mM sodium cacodylate pH 7.0, 50 mM potassium glutamate, 5% glycerol; EMSA 0.5 pM RNA, 30 min at room temperature, gel 0.25X TBE at 10 C; CD at 10 C with 5-15 uM RNA; conditions: protein: recombinant, label: 5'-32P, hairpin, 16 bp stem
TRBP-ΔC [17] = target: T2, TRBP-ΔC; experiment: EMSA; apparent Kd; nH 2.5; 50 mM sodium cacodylate pH 7.0, 50 mM potassium glutamate, 5% glycerol; EMSA 0.5 pM RNA, 30 min at room temperature, gel 0.25X TBE at 10 C; CD at 10 C with 5-15 uM RNA; conditions: protein: recombinant; label: 5'-32P; hairpin, 16 bp stem, U8 loop
TRBP-dsRBD1 [18] = target: T1, TRBP-dsRBD1; experiment: EMSA; apparent Kd; nH 1.0; 50 mM sodium cacodylate pH 7.0, 50 mM potassium glutamate, 5% glycerol; EMSA 0.5 pM RNA, 30 min at room temperature, gel 0.25X TBE at 10 C; CD at 10 C with 5-15 uM RNA; conditions: protein: recombinant, label: 5'-32P, hairpin, 16 bp stem
TRBP-ΔC [19] = target: T2, TRBP-ΔC; experiment: EMSA; apparent Kd; nH 3.1; 50 mM sodium cacodylate pH 7.0, 50 mM potassium glutamate, 5% glycerol; EMSA 0.5 pM RNA, 30 min at room temperature, gel 0.25X TBE at 10 C; CD at 10 C with 5-15 uM RNA; conditions: protein: recombinant; label: 5'-32P; hairpin, 16 bp stem, U6 loop
TRBP-dsRBD2 [20] = target: T3, TRBP-dsRBD2; experiment: EMSA; apparent Kd; nH 2.4; 50 mM sodium cacodylate pH 7.0, 50 mM potassium glutamate, 5% glycerol; EMSA 0.5 pM RNA, 30 min at room temperature, gel 0.25X TBE at 10 C; CD at 10 C with 5-15 uM RNA; conditions: protein: recombinant; label: 5'-32P; hairpin, 16 bp stem, UUCG loop
TRBP-ΔC [21] = target: T2, TRBP-ΔC; experiment: EMSA; apparent Kd; nH 1.1; 50 mM sodium cacodylate pH 7.0, 50 mM potassium glutamate, 5% glycerol; EMSA 0.5 pM RNA, 30 min at room temperature, gel 0.25X TBE at 10 C; CD at 10 C with 5-15 uM RNA; conditions: protein: recombinant; label: 5'-32P; hairpin, 16 bp stem, UUCG loop
TRBP-ΔC [22] = target: T2, TRBP-ΔC; experiment: EMSA; apparent Kd; nH 4.1; 50 mM sodium cacodylate pH 7.0, 50 mM potassium glutamate, 5% glycerol; EMSA 0.5 pM RNA, 30 min at room temperature, gel 0.25X TBE at 10 C; CD at 10 C with 5-15 uM RNA; conditions: protein: recombinant; label: 5'-32P; hairpin, 16 bp stem, U4 loop
TRBP-ΔC [23] = target: T2, TRBP-ΔC; experiment: EMSA; apparent Kd; nH 1.6; 50 mM sodium cacodylate pH 7.0, 50 mM potassium glutamate, 5% glycerol; EMSA 0.5 pM RNA, 30 min at room temperature, gel 0.25X TBE at 10 C; CD at 10 C with 5-15 uM RNA; conditions: protein: recombinant; label: 5'-32P; hairpin with 1-nt U-bulge and A-A mismatch

B1: ds44 (dsRNA)
RNA 1: GGUCAGCAGUGCCUUAGCAGCACGUAAAUAUUGGCGUUAAGACC
RNA 2: GGUCUUAACGCCAAUAUUUACGUGCUGCUAAGGCACUGCUGACC
TRBP-dsRBD1 [1]
  Kd: 800 ± 50 nM
TRBP-ΔC [2]
  Kd: 60 ± 10 nM
TRBP-dsRBD2 [3]
  Kd: 800 ± 60 nM

B2: ds16 (dsRNA)
RNA 1: GUCAGCAGUGCCUUAG
RNA 2: CUAAGGCACUGCUGAC
TRBP-ΔC [4]
  Kd: 800 ± 70 nM

B3: miR-16-1/miR-16-1* (dsRNA)
RNA 1: UAGCAGCACGUAAAUAUUGGCG
RNA 2: CCAGUAUUAACUGUGCUGCUGAA
TRBP-ΔC [5]
  Kd: 1100 ± 10 nM

B4: ds33 (dsRNA)
RNA 1: GGUCAGCAGUGCCUUAGCAGCACGUAAAUAUGG
RNA 2: CCAUAUUUACGUGCUGCUAAGGCACUGCUGACC
TRBP-dsRBD2 [6]
  Kd: 1000 ± 80 nM
TRBP-dsRBD1 [7]
  Kd: 900 ± 300 nM
TRBP-ΔC [8]
  Kd: 200 ± 20 nM

B5: ds22 (dsRNA)
RNA 1: GUCAGCAGUGCCUUAGCAGCAC
RNA 2: GUGCUGCUAAGGCACUGCUGAC
TRBP-dsRBD2 [9]; label: 5'-32P top strand (EMSA), blunt
  Kd: 1700 ± 100 nM
TRBP-dsRBD1 [10]
  Kd: 3500 ± 200 nM
TRBP-ΔC [11]
  Kd: 600 ± 50 nM

B6: U-bulge (dsRNA)
RNA 1: GGUCAGCACGUAAAUAUUGUCC
RNA 2: GGACAGUAUUUACUGUGCUGAUC
TRBP-ΔC [12]
  Kd: 300 ± 30 nM

B7: ds12 (dsRNA)
RNA 1: GUCAGCAGUGCC
RNA 2: GGCACUGCUGAC
TRBP-ΔC [13]
  Kd: 2000 ± 300 nM

B8: A-mismatch (dsRNA)
RNA 1: GGUCAGCACGUAAAUAUUGUCC
RNA 2: GGACAGUAUUAACGUGCUGUAC
TRBP-ΔC [14]
  Kd: 1780 ± 80 nM

B9: ds16-octa-U (structured_RNA)
RNA: GUCAGCAGUGCCUUAGUUUUUUUUCUAAGGCACUGCUGAC
TRBP-dsRBD1 [15]; U8 loop
  Kd: 8000 ± 3000 nM
TRBP-dsRBD2 [16]; U8 loop
  Kd: > 6000 nM
TRBP-ΔC [17]
  Kd: 410 ± 50 nM

B10: ds16-hexa-U (structured_RNA)
RNA: GUCAGCAGUGCCUUAGUUUUUUCUAAGGCACUGCUGAC
TRBP-dsRBD1 [18]; U6 loop
  Kd: 10000 ± 3000 nM
TRBP-dsRBD2 [16]; U6 loop
  Kd: > 4000 nM
TRBP-ΔC [19]
  Kd: 610 ± 50 nM

B11: ds16-tetra-stable (structured_RNA)
RNA: GUCAGCAGUGCCUUAGUUCGCUAAGGCACUGCUGAC
TRBP-dsRBD2 [20]
  Kd: 5000 ± 700 nM
TRBP-dsRBD1 [15]; UUCG loop
  Kd: 9000 ± 1000 nM
TRBP-ΔC [21]
  Kd: 500 ± 50 nM

B12: ds16-tetra-U (structured_RNA)
RNA: GUCAGCAGUGCCUUAGUUUUCUAAGGCACUGCUGAC
TRBP-dsRBD2 [9]; label: 5'-32P, hairpin, 16 bp stem, U4 loop
  Kd: 4000 ± 900 nM
TRBP-ΔC [22]
  Kd: 700 ± 50 nM
TRBP-dsRBD1 [18]; U4 loop
  Kd: 7000 ± 900 nM

B13: pre-mir-16-1 (structured_RNA)
RNA: UAGCAGCACGUAAAUAUUGGCGUUAAGAUUCUAAAAUUAUCUCCAGUAUUAACUGUGCUGCUGAA
TRBP-ΔC [23]
  Kd: 610 ± 20 nM
